# Results taken from the DeepSol protein solubility set.
# Assay: soluble on expression in E. coli; label from the status in PepcDB or PDB records
row,Sequence,soluble on expression in E. coli
1,MTTIVGVRAREVLDSRGFPTVEAEVELEGGARGRAMVPSGASTGTHEALELRDGGKRYLGKGVRRAVENVNERIAPELVGMDALDQEGVDRAMLELDGTPNKANLGANAVLAVSLAVARAAAEALGLPLYRYLGGVQGVTLPVPLMNVINGGKHADNRVDFQEFMLVPAGAGSFAEALRIGAEVFHTLKAVLKEKGYSTNVGDEGGFAPDLRSNEEAVELLLLAIERAGYTPGQEVSLALDPATSELYRDGKYHLEGEGKVLSSEEMVAFWEAWVEKYPIRSIEDGLAEDDWEGWRLLTERLGGKVQLVGDDLFVTNPERLRAGIERGVANAILVKVNQIGTLSETLEAIRLAQRSGYRAVISHRSGETEDSFIADLAVAVNAGQIKTGSLSRSDRLAKYNQLLRIEEELGRAARFLGYAAF,soluble
2,MQICQNPSCSNPFNPDGNRFCMSCGQSNFGKLLRNRYRVLGLLGEGGFSKTYAAEDADRLDAPCVIKQFFPQIQGTGQRSKAAEFFKEEAFRLYELGENHTQIPRLLAYFEQGSSLYLVQEFIKGLTLLQEVQQEPFNEEKIRQLLIDLLPVLDFVHFHHVIHRDIKPENIIRRDGDGKLVLIDFGGAKQVTQTSIARQATAIYTLGYAPTEQMAGFACHASDLYALGVTCVRLLTQCLPQQNLYGHIDDGLYDPMNGKWLWQEYLQDRGITISENLSQILDKLLKHLPSERYQSAAEVLHDLQVFTAIVEETQILPNTQTTLVPLAPATQRTKRPLPPLQTFEYEVVTVDTAGRIVNRDRTNTQILVEQLNKDITLEMLSIPGGAYLMGSPNFEGDADERPQHQVAIAPFFMGKYPVTQAQWRAVAGLPKIKQALNPYPSKYKGQNRPVENVSWHEVLEFCARLSEKTGREYRLPSEAEWEYACRAGTTTSFHFGETITPDLANFSDSDIHNIEAKTRYRKETTDVGNFRVANAFGLYDMHGLVWEWCADPWHNNYNGAPTDGSVWEAGGDIYRRVLRGGSWNFGAELCRSASRSWNESDGGLRICGFRVVFSAGLEHHHHHH,soluble
3,MSNYPLHQACMENEFFKVQELLHSKPSLLLQKDQDGRIPLHWSVSFQAHEITSFLLSKMENVNLDDYPDDSGWTPFHIACSVGNLEVVKSLYDRPLKPDLNKITNQGVTCLHLAVGKKWFEVSQFLIENGASVRIKDKFNQIPLHRAASVGSLKLIELLCGLGKSAVNWQDKQGWTPLFHALAEGHGDAAVLLVEKYGAEYDLVDNKGAKAEDVALNEQVKKFFLNNVVDKLAAALEHHHHHH,soluble
4,DGYHLLQELGAIELAGDGEAAEAGGGGAAFRLTRTGQELAKLPVDPRIGRMILAAREQQCLAEMLIIAAALSVQDPRDRPMAEREAAESAHAKFADDKSEFLSFL,not soluble
5,MGSDKIHHHHHHMMTDARTTAEGGMETSYGFHKVDEGKKQGLVNEVFHKVAKRYDIMNDVMSAGLHRLWKDAMVSALSPRKDPSYKILDVAGGTGDVAFRIIEASNRLAHATVLDINGSMLAVGEERAAKKKLSDNLTFVEANAEELPFEANTFDAYTVAFGIRNVPRIDVALKEAYRVLKRGGRLLVLEFSEVDMPLLDRVYDAWSFNAIPQFGKMITGDAEPYQYLVESIRKFPNQEDFATMIRTAGFSRVTYTNYTGGIAALHSGWKL,not soluble
6,MSLYIPCLMCTQHPDSTVKITAGEEVDEAVVAFLAYGCDEVMVDYEGKATPYSQPRDVASKALALGLPLGERFFITPRVPNPRLEDFERSMLSLEAAVLANSYSQRAAGVQAVKWVVLPMTEDVETMAFVYKALDMKARDLAELNAVKRDSSIELIPLVEDAMRQIKIESFIKALFRTAAQSGRILEHMRIFLGISDSAVRHGHMASALAMVKALGQISEINRDGEFKISPIVGMGSPPFRGGLNNPHLAVPEAAQYAGYKTATIQSAVRYDVSYAEYQKVREAILSVYTPRRLHVEEAWITKASELYREAIRPYIGKIAELANAIPSTRDRVSWREYGRVIEGVEWRVPRAIVYTATWYFAGVPPTLLDARFIAWAYKNDLLDDVLRALPATVEEWKFESRFYSRERAEKTLGGEIVKDIDNAFDILGIKPEPDRTYITLLNSADTQPHAIALGRIRGFLGEGHHHHHH,not soluble
7,MGESPSNPSGLTFRLADDRKLKAIYVPAAEKASVNLGFLRHALVAGGFADLFIYDHALVELIKRYNAATQEFVYDVGEQRDGTYIIRNTPDNIEAYLTLTRPYGGKPVCPEQLHQALREQGVIYGVLTDEIETAIEAGEATDLLIARGIPPEQGTDAELVSLIPQARDRQPELQDNETVDYRDRGEISSVKAGDPLMRRIPPTPGKPGTNIMGKEVPAPPAKDLKFTPNLPGTTFAPDDPDLLIAAIDGQPVLVANGVMIEPVIKIKNVDLSSGNISFKGSVDISGDITPGMTVRATGDITVGGVVEGATLEAEGDIVVRGGIIGPGENRDPKGKSGQERALIRAKGNIEALFVENSLVEAGGMIQIAGFAMQSNLVAGTQVVVGQEGTTKGHIIGGSCQAVSRIQAVTLGSHAGVHTTVSVGVNPHVKEKLSTVKLKIAEAERELDELTKRLDYFASTPLKGSPEQINETRQAKDKLVTALSELKGERKRLEKRLEQASDALIRVERAVLSGVVISIGTKTLEVKDDMEGGITFRLEDDAIVASQLEHHHHHH,not soluble
8,LTGFQVGPMLQYQTGFHGIVLDFSLLYVERGIKLTNTSNRRSADIKTQSIDIPIELKWEMGMSNNFDLFLGVGPSFSFLVDKDNWGRKLAHIAVDVIDKDLPSMGWRSTEVGLNLGGGVKIVNHLMVSCYYNIGLTQSAKHNIGGNKHDAIDQIFDGDVFESKNRYWQLSLAYVF,not soluble
9,GPGSMGAVKFQLYKTLGVPMKSSIKDITRAYRHLALKYHPDRNPEGVEKFKSISNAYAVLSDPERRAAYDLTGFLSDSADSSHAMSDEAARQQRSAELADQVRTFFATYAGSAEERLDVVRGYEKCRGDFKKMVREYLLFDNGVEAEVQRLHRLVSTLIELGNLSPTPAWKSTSTPEALLRLEKAMHRERQEAENVLKDMAGSGTGAAGAADGDLSSLQVMIRQRQQSSYESMLNHLESKYVTKKSNARESSKRTREAAPTARKDECASKKHRKASHHR,soluble
10,MAILAFDLGGSSVKYGVWTGKELTNQGSFPTPGSWEEMKAHLYSVYADKRNESISGVAFSSPGVVDEKSQQILGISAIPYIHHFNIYEELEALFGLPVTIENDANCAGLAEIYEGAAKGKKEVLFVVIGTGIGGAIFRNGELYKGAHLYGGEFGLNFLSNGQTFSEIGTAVKMAQRYCERIGVEKQAVTGEEVFELAQRGDEIAREEVNNFYDYLTQGLFGLQFSYDPEMIVLGGGVSAKEGLLAEINRRMLTHLQTFELKDFVPEIVTCHYQNDANLIGAAANFQAKTNWEL,not soluble
11,IGKVKLSARGTFTYARNKIVEYDELPQRYPWMAQTGMRINENYLYIAERLYTKEDFIVSKNGSGIETYTLRSELPQSTLGGLLGPGDIKYKDINGDGIIDSYDKVRGVGHPKVPEIVYGFGLNIEYKGFYASAFFQGAGNCSVLLGGNTPEGWFPFSWGVDQSNYRTFALDRWTEKNPSQNVLMPRLHKDNTNAANNSVASTWWLRNGGFLRLKNVELGYQLPKKLLSKINLQAARIYLMGYNIALWDDLKYFDPEAGNANGGNTYPKARTFTLGIDFTF,not soluble
12,MSKNTGSVAPKERVNIKYVPATSDEQAEVELPHKMLVLGDFGLDDSRALEDRQVMRIDKHTFNSVLNDANVSLDVTVPSRLGTAPDTELAVHLQFRSINDFGPDRIARQVPELNKLLALREALVALKGPLGNVPAFRKQLQHLLNNEQARKQLAQELDLVLEAPEKD,not soluble
13,SSYNILSQDLLEDNSHLYRHCRRPVLHWSFRFPNILKEIKHFDADVLCLQEVQEDHYGAEIRPSLESLGYHCEYKMRTGRKPDGCAICFKHSKFSLLSVNPVEFFRPDISLLDRDNVGLVLLLQPKIPYAACPAICVANTHLLYNPRRGDIKLTQLAMLLAEISSVAHQKDGSFCPIVMCGDFNSVPGSPLYSFIKEGKLNYEGLPIGKVSGQEQSSRGQRILSIPIWPPNLGISQNCVYEVQQVPKVEKTDSDLTQTQLKQTEVLVTAEKLSSNLQHHFSLSSVY,soluble
14,MSLEEINKIEVIEKSIEENTEKYEIKVKYPSIQGGEKEVTDKINKTIEDYTLNWINDIKLLGEEYSKEYEKAGKEMPKMEAYSLFEAFNTDEVISLPVSYYQYTGGAHGLTTKVSYNYNLKTGKELKLKDLFKEGFDYKSIIDKKVRGDIEKEKELYFDNGALFKGVNENQAYYLNRDGIIVYFQQYEIAPYSSGIREFKIPYGELKEGLIYKLGNEGHHHHHH,soluble
15,MGSDKIHHHHHHMGYLKTMVDVMTTEMNAIRCLIDEAGIEYESIVSEIANCEGKVIFMGVGKSAHIGKKLAATFASTGTPSFFVHATEAVHGDLGMIESKDITILISNSGNSMEVVNCIKYIKAIGSKTIAFTSNRNSVLAKECDYALIYPAKDEADHLNLAPTTSSTITLVLGDSIACALSKSSNFGSSDFYKYHPGGSLGEKLKTANNG,not soluble
16,MGSDKIHHHHHHMASPGSGFWSFGSEDGSADPENPGTARAWCQVAQKFTGGIGNKLCALLYGDSGKPAEGGGSVTSRAATGKVACTCDQKPCNCPKGDVNYAFLHATDLLPACDGERPTLAFLQDVMNILLQYVVKSFDRSTKVIDFHYPNELLQEYNWELADQPQNLEEILTHCQTTLKYAIKTGHPRYFNQLSTGLDMVGLAADWLTSTANTNMFTYEIAPVFVLLEYVTLKKMREIIGWPGGSGDGIFSPGGAISNMYAMLIARYKMFPEVKEKGMAAVPRLIAFTSEHSHFSLKKGAAALGIGTDSVILIKCDERGKMIPSDLERRILEVKQKGFVPFLVSATAGTTVYGAFDPLLAVADICKKYKIWMHVDAAWGGGLLMSRKHKWKLSGVERANSVTWNPHKMMGVPLQCSALLVREEGLMQSCNQMHASYLFQQDKHYDLSYDTGDKALQCGRHVDVFKLWLMWRAKGTTGFEAHIDKCLELAEYLYTIIKNREGYEMVFDGKPQHTNVCFWFVPPSLRTLEDNEERMSRLSKVAPVIKARMMEYGTTMVSYQPLGDKVNFFRMVISNPAATHQDIDFLIEEIERLGQDL,not soluble
17,MKTLLLLIPLVLTACGTLTGIPAHGGGKRFAVEQELVAASSRAAVKEMDLSALKGRKAALYVSVMGDQGSGNISGGRYSIDALIRGGYHNNPDSATRYSYPAYDTTATTKSDALSGVTTSTSLLNAPAAALTKNNGRKGERSAGLSVNGTGDYRNETLLANPRDVSFLTNLIQTVFYLRGIEVVPPEYADTDVFVTVDVFGTVRSRTELHLYNAETLKAQTKLEYFAVDRDSRKLLIAPKTAAYESQYQEQYALWMGPYSVGKTVKASDRLMVDFSDITPYGDTTAQNRPDFKQNNGKNPDVGNEVIRRRKGG,not soluble
18,MGSDKIHHHHHHMAEIEQALASPQLIAEKVLKLPSKVLELDRKLADPQFDTKDLLALIEQDPLLSVEVLKLCNSPAFKRGEREVTSLQQALVQLGREQLRRFVTSSLVREMLDIKPIYFRRFGAEIWRHSMQVAFLASELSEEDRDTAFLLGLLHDVGKLAIFKMLLDAFVQAEPGEQPNSWLFRQVMTAKSLTLSALLAKHWQLPSTFETELDKLAHVHTRPNEGIAAVVWRANVISEISMLQQASKLPADMLSNLLALVGLEQAQFDELHEKLQQF,not soluble
19,MGSDKIHHHHHHMQKIFDAHLHLWDLEKIPISWIKDDEKLEQNYDFFRMKQEYKEFEFIGAMYVEVNSDDLEKEALFALEQKKLHNLLFCLADFKHKEELSSFREVMHTSKKGAKRLFEADFEEKIEILKTFNIPFEACIKNEELGFLEKFLSKNPNLKVVLNHLGSPKINRLNEYKKDLSFLKKFQNLYIKLSIPDGFSQETPKEFIFELFAFLKENFSENKFIFGSNYPVAKITPAKWAKLIIESKIFDDLDKIFYKNALLIYKGG,not soluble
